Test results from the supplement of paper PMC7125110.
± gives the standard error. For part of these data: Variants at the floor of the assay were thinned out.

B1: glmS ribozyme (parent)
chain: AUAAAAGCGCCAGAACUACAGAAAUGUAGUUGACGAGGAGGAGGUUUAUCGAAUUUUCGGCGGAUGCCUCCAAA

Columns and labels:
Conditions in all cases: with glucosamine-6-phosphate
glucosamine-6-phosphate [1] = variants of: B1; experiment: kcat; higher = faster cleavage; RNA array
In short: (§1)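 Barcoded ribozyme variants, transcribed in situ by E. coli RNA polymerase on sequenced MiSeq chips, were followed via a hybridised Cy3 probe at 37 °C. Glucosamine-6-phosphate ranged from 40 μM to 10 mM in HEPES/KCl/Mg(OAc)2 buffer. kobs came from decay fits to per-tile medians, and kcat and KM from weighted Michaelis–Menten fits.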

glucosamine-6-phosphate [2] = variants of: B1; experiment: KM; higher = weaker cofactor use; RNA array
In short: as §1

glucosamine-6-phosphate [3] = variants of: B1; experiment: self-cleavage kobs at 10000 uM GlcN6P; higher = faster cleavage; RNA array
In short: as §1

glucosamine-6-phosphate [4] = variants of: B1; experiment: self-cleavage kobs at 640 uM GlcN6P; higher = faster cleavage; RNA array
In short: as §1

glucosamine-6-phosphate [5] = variants of: B1; experiment: self-cleavage kobs at 2500 uM GlcN6P; higher = faster cleavage; RNA array
In short: as §1

glucosamine-6-phosphate [6] = variants of: B1; experiment: self-cleavage kobs at 40 uM GlcN6P; higher = faster cleavage; RNA array
In short: as §1

glucosamine-6-phosphate [7] = variants of: B1; experiment: self-cleavage kobs at 160 uM GlcN6P; higher = faster cleavage; RNA array
In short: as §1

Row | Variant | kcat (glucosamine-6-phosphate [1]) | KM (glucosamine-6-phosphate [2]) | self-cleavage kobs at 10000 uM GlcN6P (glucosamine-6-phosphate [3]) | self-cleavage kobs at 640 uM GlcN6P (glucosamine-6-phosphate [4]) | self-cleavage kobs at 2500 uM GlcN6P (glucosamine-6-phosphate [5]) | self-cleavage kobs at 40 uM GlcN6P (glucosamine-6-phosphate [6]) | self-cleavage kobs at 160 uM GlcN6P (glucosamine-6-phosphate [7])
1 | U47A C50A | 4.12e-05 ± 2e-06 s⁻¹ | 5840 ± 720 µM | 2.6e-05 ± 9.8e-06 s⁻¹ | – | – | – | –
2 | U47A C68G | 4.89e-05 ± 9.9e-06 s⁻¹ | – | 3.56e-05 ± 9.2e-06 s⁻¹ | 4.99e-05 ± 1.2e-05 s⁻¹ | 6.81e-05 ± 1.2e-05 s⁻¹ | – | –
3 | A48C C68G | < 1e-05 s⁻¹ | – | < 1e-05 s⁻¹ | – | – | < 1e-05 s⁻¹ | –
4 | U47G C71A | 0.00107 ± 0.00043 s⁻¹ | – | 0.00146 ± 0.0002 s⁻¹ | 0.000443 ± 0.0001 s⁻¹ | 0.000556 ± 0.0001 s⁻¹ | 5.64e-05 ± 1.4e-05 s⁻¹ | –
5 | U47A A48U | 0.000219 ± 1.3e-05 s⁻¹ | 1570 ± 190 µM | 0.000181 ± 3.1e-05 s⁻¹ | 6.18e-05 ± 1e-05 s⁻¹ | 0.000143 ± 2.2e-05 s⁻¹ | – | –
6 | U47A A48G | 7.44e-05 ± 1.1e-05 s⁻¹ | – | 6.69e-05 ± 1.3e-05 s⁻¹ | 7.58e-05 ± 2e-05 s⁻¹ | 8.16e-05 ± 2.9e-05 s⁻¹ | – | –
7 | A48G C58U | 1.71e-05 ± 2.1e-06 s⁻¹ | – | – | – | – | – | –
8 | A48G U54C | 0.000123 ± 1.5e-05 s⁻¹ | 1310 ± 500 µM | 0.000104 ± 1.3e-05 s⁻¹ | 3.59e-05 ± 1.1e-05 s⁻¹ | 0.000101 ± 1.8e-05 s⁻¹ | – | –
9 | U47C A52C | 4.02e-05 ± 1.2e-06 s⁻¹ | 3020 ± 290 µM | – | < 1e-05 s⁻¹ | – | – | < 1e-05 s⁻¹
10 | U47C A52U | 0.00034 ± 5.8e-05 s⁻¹ | 3930 ± 1200 µM | 0.000231 ± 4.7e-05 s⁻¹ | 3.84e-05 ± 1.6e-05 s⁻¹ | 0.000145 ± 2.3e-05 s⁻¹ | – | –
11 | U47C C58A | 0.00036 ± 6e-05 s⁻¹ | 4240 ± 1300 µM | 0.000244 ± 3.3e-05 s⁻¹ | 3.95e-05 ± 1.1e-05 s⁻¹ | 0.00016 ± 2.7e-05 s⁻¹ | – | –
12 | U47C C58U | 0.000109 ± 7.3e-06 s⁻¹ | – | 4.92e-05 ± 8.1e-06 s⁻¹ | – | – | – | –
13 | A48G C70G | 6.2e-05 ± 1.1e-05 s⁻¹ | – | 5.25e-05 ± 9.4e-06 s⁻¹ | 8.57e-05 ± 1.8e-05 s⁻¹ | 7.26e-05 ± 1.6e-05 s⁻¹ | – | –
14 | A48G C67G | 5.64e-05 ± 1.8e-05 s⁻¹ | – | 4.41e-05 ± 1.4e-05 s⁻¹ | 3.36e-05 ± 1.6e-05 s⁻¹ | 7.99e-05 ± 1.9e-05 s⁻¹ | – | < 1e-05 s⁻¹
15 | A48C U54A | 0.000452 ± 4.8e-05 s⁻¹ | 1720 ± 350 µM | 0.000371 ± 6.6e-05 s⁻¹ | 0.000118 ± 2.2e-05 s⁻¹ | 0.000342 ± 8.9e-05 s⁻¹ | – | 3.98e-05 ± 2e-05 s⁻¹
16 | A48C U54C | 0.00042 ± 0.00013 s⁻¹ | – | 0.000316 ± 9.5e-05 s⁻¹ | 9.71e-05 ± 2.4e-05 s⁻¹ | 0.000224 ± 6e-05 s⁻¹ | – | –
17 | A48C C71U | 0.000393 ± 1.6e-05 s⁻¹ | 5220 ± 390 µM | 0.00026 ± 2.4e-05 s⁻¹ | 4.42e-05 ± 7.8e-06 s⁻¹ | 0.000123 ± 1.7e-05 s⁻¹ | – | –

Row | Variant | kcat (glucosamine-6-phosphate [1]) | KM (glucosamine-6-phosphate [2]) | self-cleavage kobs at 10000 uM GlcN6P (glucosamine-6-phosphate [3]) | self-cleavage kobs at 640 uM GlcN6P (glucosamine-6-phosphate [4]) | self-cleavage kobs at 2500 uM GlcN6P (glucosamine-6-phosphate [5]) | self-cleavage kobs at 40 uM GlcN6P (glucosamine-6-phosphate [6]) | self-cleavage kobs at 160 uM GlcN6P (glucosamine-6-phosphate [7])
18 | U47A A64C | 0.000113 ± 8.6e-06 s⁻¹ | 720 ± 280 µM | 0.000109 ± 1.1e-05 s⁻¹ | 6.51e-05 ± 1.8e-05 s⁻¹ | 7.85e-05 ± 1.3e-05 s⁻¹ | – | –
19 | U47G C50U A64C | 1.3e-05 ± 3.4e-06 s⁻¹ | – | – | – | – | – | –
20 | U47C C67U | 0.000295 ± 6.9e-05 s⁻¹ | – | 0.000358 ± 6e-05 s⁻¹ | 0.000131 ± 3.2e-05 s⁻¹ | 0.000177 ± 3.5e-05 s⁻¹ | – | 6.7e-05 ± 2.4e-05 s⁻¹
21 | U47C U65A | 0.00113 ± 0.00024 s⁻¹ | 930 ± 300 µM | 0.00092 ± 0.00017 s⁻¹ | 0.000443 ± 9.4e-05 s⁻¹ | 0.00121 ± 0.00023 s⁻¹ | 6.54e-05 ± 1.7e-05 s⁻¹ | 0.000154 ± 2.2e-05 s⁻¹
22 | U47C U65G | 0.00435 ± 0.0005 s⁻¹ | 3840 ± 610 µM | 0.00312 ± 0.0006 s⁻¹ | 0.000565 ± 0.00011 s⁻¹ | 0.00189 ± 0.00047 s⁻¹ | 4.89e-05 ± 1.1e-05 s⁻¹ | –
23 | U47A C67A | 0.00576 ± 0.0027 s⁻¹ | – | 0.00568 ± 0.0013 s⁻¹ | 0.0014 ± 0.00021 s⁻¹ | 0.00288 ± 0.00043 s⁻¹ | 0.000186 ± 2.7e-05 s⁻¹ | 0.000303 ± 5.4e-05 s⁻¹
24 | U47A A52U | 0.000365 ± 3.9e-05 s⁻¹ | 2690 ± 570 µM | 0.000299 ± 4.3e-05 s⁻¹ | 7.72e-05 ± 1.5e-05 s⁻¹ | 0.000158 ± 3e-05 s⁻¹ | – | –
25 | A48C U55C | 0.000419 ± 0.00015 s⁻¹ | – | 0.00029 ± 4.9e-05 s⁻¹ | 6.73e-05 ± 1.2e-05 s⁻¹ | 0.000327 ± 4.9e-05 s⁻¹ | – | –
26 | A48C U55A | 0.000411 ± 0.0001 s⁻¹ | 2110 ± 920 µM | 0.000272 ± 8.7e-05 s⁻¹ | 8.73e-05 ± 1.8e-05 s⁻¹ | 0.000276 ± 4.6e-05 s⁻¹ | – | –
27 | U47G G66U | 0.000146 ± 7.9e-06 s⁻¹ | 756 ± 130 µM | 0.000142 ± 1.4e-05 s⁻¹ | 6.79e-05 ± 8.7e-06 s⁻¹ | 0.000106 ± 1.1e-05 s⁻¹ | – | 3.12e-05 ± 1.5e-05 s⁻¹
28 | U47G U57G | 6.2e-05 ± 9.2e-06 s⁻¹ | – | 5.61e-05 ± 1.2e-05 s⁻¹ | – | 6.68e-05 ± 2.2e-05 s⁻¹ | – | –
29 | A48G C61U | 3e-05 ± 9.3e-06 s⁻¹ | – | – | – | – | < 1e-05 s⁻¹ | –
30 | U47A C58G | 0.000134 ± 1.1e-05 s⁻¹ | 1740 ± 440 µM | 0.000117 ± 1.5e-05 s⁻¹ | 4.54e-05 ± 1.7e-05 s⁻¹ | 7.52e-05 ± 1.2e-05 s⁻¹ | – | –
31 | U47A U65G U69C | 0.00209 ± 0.00057 s⁻¹ | 2700 ± 1100 µM | 0.00154 ± 0.0005 s⁻¹ | – | 0.00114 ± 0.00024 s⁻¹ | – | 0.000128 ± 3.1e-05 s⁻¹
32 | U47C C50U | 4.46e-05 ± 3.5e-07 s⁻¹ | 1670 ± 52 µM | 3.82e-05 ± 1.1e-05 s⁻¹ | – | 2.69e-05 ± 1.3e-05 s⁻¹ | – | –
33 | U47C C50A | 3.31e-05 ± 5.7e-06 s⁻¹ | 3090 ± 1500 µM | – | – | – | – | –
34 | U47G C68G | 8.45e-05 ± 1.2e-05 s⁻¹ | – | 7.41e-05 ± 6.8e-06 s⁻¹ | 8.26e-05 ± 1e-05 s⁻¹ | 0.000104 ± 1.2e-05 s⁻¹ | 5.34e-05 ± 1e-05 s⁻¹ | 0.000166 ± 2.8e-05 s⁻¹
